Where two headings read alike, the source gives them in different places.
Assays:
Test in all cases: filter binding
[1] = molecular target: T1, Py-DmBLM (Drosophila Bloom's syndrome helicase) (Drosophila, UniProt Q9VGI8 1-1487)
[2] = molecular target: T1, Py-DmBLM (Drosophila Bloom's syndrome …); remark: listed apart in the source
[3] = molecular target: T1, Py-DmBLM (Drosophila Bloom's syndrome …); remark: listed apart in the source

T1 sequence (Q9VGI8 whole entry): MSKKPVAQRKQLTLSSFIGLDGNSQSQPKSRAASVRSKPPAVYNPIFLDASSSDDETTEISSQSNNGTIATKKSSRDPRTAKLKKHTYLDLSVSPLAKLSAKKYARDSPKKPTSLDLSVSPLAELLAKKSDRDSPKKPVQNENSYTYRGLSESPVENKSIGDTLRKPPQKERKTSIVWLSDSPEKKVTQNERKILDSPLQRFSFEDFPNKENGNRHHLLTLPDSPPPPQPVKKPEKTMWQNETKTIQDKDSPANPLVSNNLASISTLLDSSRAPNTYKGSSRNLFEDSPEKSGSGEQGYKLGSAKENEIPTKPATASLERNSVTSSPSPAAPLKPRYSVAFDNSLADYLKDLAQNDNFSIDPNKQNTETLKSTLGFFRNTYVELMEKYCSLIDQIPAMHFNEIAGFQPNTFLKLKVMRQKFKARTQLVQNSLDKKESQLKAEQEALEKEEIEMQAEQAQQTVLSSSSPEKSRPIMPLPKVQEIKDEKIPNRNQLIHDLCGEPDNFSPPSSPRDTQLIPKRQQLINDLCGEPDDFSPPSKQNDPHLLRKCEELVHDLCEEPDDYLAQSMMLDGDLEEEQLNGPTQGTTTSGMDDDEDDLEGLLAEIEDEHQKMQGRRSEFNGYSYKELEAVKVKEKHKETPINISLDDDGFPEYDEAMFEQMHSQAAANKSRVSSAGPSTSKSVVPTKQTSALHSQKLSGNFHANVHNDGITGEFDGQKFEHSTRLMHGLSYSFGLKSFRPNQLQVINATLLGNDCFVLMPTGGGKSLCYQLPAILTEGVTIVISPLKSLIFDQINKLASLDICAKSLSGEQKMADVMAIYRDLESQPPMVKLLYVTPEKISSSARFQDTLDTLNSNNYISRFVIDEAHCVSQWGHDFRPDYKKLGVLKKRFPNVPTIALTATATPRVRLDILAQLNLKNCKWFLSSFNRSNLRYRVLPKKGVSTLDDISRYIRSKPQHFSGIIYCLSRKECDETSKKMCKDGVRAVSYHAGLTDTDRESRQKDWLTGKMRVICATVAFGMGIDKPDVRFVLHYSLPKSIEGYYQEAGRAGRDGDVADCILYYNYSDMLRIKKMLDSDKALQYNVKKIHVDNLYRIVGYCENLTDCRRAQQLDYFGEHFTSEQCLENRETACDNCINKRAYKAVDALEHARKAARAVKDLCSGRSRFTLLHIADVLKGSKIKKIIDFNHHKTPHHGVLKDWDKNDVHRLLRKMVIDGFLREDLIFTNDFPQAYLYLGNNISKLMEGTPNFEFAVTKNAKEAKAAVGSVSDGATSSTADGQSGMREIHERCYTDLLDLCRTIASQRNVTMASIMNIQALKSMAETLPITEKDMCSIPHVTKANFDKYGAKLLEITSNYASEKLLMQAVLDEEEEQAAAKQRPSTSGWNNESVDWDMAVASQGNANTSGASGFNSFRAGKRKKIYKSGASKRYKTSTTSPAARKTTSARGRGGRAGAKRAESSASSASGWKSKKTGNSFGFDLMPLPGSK

B1: 3' Tail (o1/o2) (mixed)
DNA 1: GACGCTGCCGAATTCTGGCTTGCTAGGACATCTTTGCCCACGTTGACCCG
DNA 2: ATGTCCTAGCAAGCCAGAATTCGGCAGCGTC
[1]
  binding result: binds

B2: o1 (ssDNA)
DNA: GACGCTGCCGAATTCTGGCTTGCTAGGACATCTTTGCCCACGTTGACCCG
[2]
  binding result: binds

B3: Forked (o1/o3) (mixed)
DNA 1: GACGCTGCCGAATTCTGGCTTGCTAGGACATCTTTGCCCACGTTGACCCG
DNA 2: CGAATAATCGTCATGTCCTAGCAAGCCAGAATTCGGCAGCGTC
[3]
  binding result: binds
